T1: Biotinylated CD39 Protein, hFc Tag, KACTUS, CD9-HM239B (UniProt P49961 38-478, biotinylated)
T1 construct: Control antigen; also called CD39-bio-hFc; 负淘选抗原; not shown: hFc tag
T1 sequence (looked up): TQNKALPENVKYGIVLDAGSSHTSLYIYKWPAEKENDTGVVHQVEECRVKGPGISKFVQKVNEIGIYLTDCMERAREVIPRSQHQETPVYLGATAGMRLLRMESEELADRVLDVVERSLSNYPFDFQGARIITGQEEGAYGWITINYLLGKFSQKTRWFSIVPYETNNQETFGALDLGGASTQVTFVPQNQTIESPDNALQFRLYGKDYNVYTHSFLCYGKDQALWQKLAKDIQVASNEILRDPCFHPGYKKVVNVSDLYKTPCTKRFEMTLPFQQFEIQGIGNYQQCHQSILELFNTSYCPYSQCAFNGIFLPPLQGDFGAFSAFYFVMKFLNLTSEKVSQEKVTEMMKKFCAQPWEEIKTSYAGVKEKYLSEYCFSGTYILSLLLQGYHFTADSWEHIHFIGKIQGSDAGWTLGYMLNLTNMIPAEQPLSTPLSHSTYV

T2: Human Latent GDF-2/BMP-9 Protein, His tag, Acro, GD2-H52H3 (human, UniProt Q9UK05 23-429)
T2 construct: Bought protein, latent form; not shown: His tag
T2 sequence (looked up): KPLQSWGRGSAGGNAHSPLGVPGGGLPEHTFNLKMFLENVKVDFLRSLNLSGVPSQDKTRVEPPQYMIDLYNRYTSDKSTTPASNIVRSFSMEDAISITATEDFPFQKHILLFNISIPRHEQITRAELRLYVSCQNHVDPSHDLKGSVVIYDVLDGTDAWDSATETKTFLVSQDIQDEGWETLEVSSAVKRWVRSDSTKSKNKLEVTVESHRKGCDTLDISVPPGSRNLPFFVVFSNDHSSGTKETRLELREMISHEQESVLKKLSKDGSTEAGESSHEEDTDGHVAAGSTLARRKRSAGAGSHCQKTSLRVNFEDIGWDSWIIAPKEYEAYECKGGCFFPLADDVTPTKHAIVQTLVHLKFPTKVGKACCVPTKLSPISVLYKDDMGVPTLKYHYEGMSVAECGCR

T3: Biotinylated Human GDF15 Protein (Primary Amine Labeling), KACTUS, GDF-HM215B (human, UniProt Q99988 197-308, biotinylated (primary amine labeling))
T3 construct: Bought protein; also called human GDF15-bio-hFc; humanGDF15-bio-hFc; not shown: hFc tag
T3 sequence (looked up): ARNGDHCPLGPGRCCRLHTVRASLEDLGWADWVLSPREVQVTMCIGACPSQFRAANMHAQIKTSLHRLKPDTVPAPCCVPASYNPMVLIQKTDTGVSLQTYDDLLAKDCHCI

T4: GDF15 hFc tag, KACTUS, GDF-HM215 (UniProt Q99988 197-308)
T4 construct: also called GDF15蛋白; not shown: hFc tag
T4 sequence (looked up): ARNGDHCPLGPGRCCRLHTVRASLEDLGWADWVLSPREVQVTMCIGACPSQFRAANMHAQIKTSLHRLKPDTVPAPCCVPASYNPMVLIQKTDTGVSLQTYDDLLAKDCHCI


Tests used:
[1] = molecular target: T1, Biotinylated CD39 Protein, hFc Tag, …; experiment: phage ELISA
[2] = molecular target: T5, Streptavidin (SA蛋白), Pierce, 21125 (UniProt P22629 37-163, limits assumed); experiment: phage ELISA
T5 construct: Control antigen in the specificity ELISA; also called Strepavidin

[3] = molecular target: T2, Human Latent GDF-2/BMP-9 Protein, His …; experiment: phage ELISA
[4] = molecular target: T3, Biotinylated Human GDF15 Protein …; experiment: phage ELISA
[5] = molecular target: T4, GDF15 hFc tag, KACTUS, GDF-HM215; experiment: competition ELISA: GDF15 hFc coated, antibody titrated against GFRAL His tag (competitor), anti-His HRP

T5 sequence (P22629 37-163 limits assumed): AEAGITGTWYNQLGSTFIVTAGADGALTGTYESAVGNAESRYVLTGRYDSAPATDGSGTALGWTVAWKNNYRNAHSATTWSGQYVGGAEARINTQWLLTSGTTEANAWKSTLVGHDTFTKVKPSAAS

Binder	binding result [1]	binding result [2]	binding result [3]	binding result [4]	EC50 [5] [nM]
Clone 68 (噬菌体单克隆) (other) VH: QVQLVQSGAEVKKPGASVKVSCKASGYTFTNYGINWVRQAPGQGLEWMGWISAYNGYTDYAQKLQGRVSMTTDTSTSTVYMELRSLRSDDTAVYYCARDDAINGGDYWGQGTLVTVSS VL: not shown	no binding	no binding	no binding	binds	–
Clone 68 抗GDF15 IgG (human IgG4) (Fc fusion, also called GDF15 mAb; not shown: human IgG4 Fc) QVQLVQSGAEVKKPGASVKVSCKASGYTFTNYGINWVRQAPGQGLEWMGWISAYNGYTDYAQKLQGRVSMTTDTSTSTVYMELRSLRSDDTAVYYCARDDAINGGDYWGQGTLVTVSSTSGGGGSGGGGSGGGGSELSYVLTQPPSASGTPGQRVTISCSGSSSNIGINTVNWYQQLPGTAPKLLIYINNQRPSGVPDRFSGSKSGTSASLAISGLQSEDEADYYCAAWDDSLNAYVFGSGTKVTVL	–	–	–	–	1.4

Source: patent CN116444667A (SHANGHAI IASO BIOTECH CO LTD, dated 2023)
